# Experimental data reported in patent US20200369776A1.
# Target: full-length monkey CD137 on the cell surface (cynomolgus monkey)
# Assay: flow cytometry, PMA + ionomycin activated cynomolgus T cells, antibody at 100 nM (Example 4d), Alexa Fluor 647 anti-human Fc; SSC-H against antibody binding
# Chain of full-length monkey CD137 on the cell surface (cynomolgus monkey) (Q07011 other isoform, or with tags, fused parts or gaps): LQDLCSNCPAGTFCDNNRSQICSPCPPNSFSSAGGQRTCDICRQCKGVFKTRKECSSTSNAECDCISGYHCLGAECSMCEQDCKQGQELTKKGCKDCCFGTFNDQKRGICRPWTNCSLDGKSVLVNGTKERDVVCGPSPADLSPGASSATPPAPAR
substance,measurement,value
human IgG4 isotype control antibody,percent of cells in the lower right (antibody-positive) quadrant,1.5%
